In ChEMBL document CHEMBL2074029, “Substrate specificities of rat oatp1 and ntcp: implications for hepatic organic anion uptake” (Am J Physiol Gastrointest Liver Physiol, 2003):

Experiments:
Format in all cases: functional, cell-based
[1] = substrate: O=C1OC(c2ccc(O)c(S(=O)(=O)O)c2)(c2ccc(O)c(S(=O)(=O)O)c2)c2c(Br)c(Br)c(Br)c(Br)c21; experiment: (§1) TP_TRANSPORTER: uptake in NTCP-expressing HeLa cells
[2] = substrate: C[C@H](CCC(=O)NCCS(=O)(=O)O)C1CC[C@H]2[C@@H]3C[C@H](O)[C@@H]4C[C@H](O)CC[C@]4(C)[C@H]3CC[C@]12C; experiment: as §1
[3] = substrate: C[C@H](CCC(=O)NCCS(=O)(=O)O)[C@H]1CC[C@H]2[C@@H]3CC[C@@H]4C[C@H](O)CC[C@]4(C)[C@H]3C[C@H](O)[C@]12C; experiment: as §1
[4] = substrate: C[C@H](CCC(=O)O)[C@H]1CC[C@H]2[C@@H]3C[C@H](O)[C@@H]4C[C@H](O)CC[C@]4(C)[C@H]3CC[C@]12C; experiment: (§2) TP_TRANSPORTER: uptake in Oatp1-expressing HeLa cells
[5] = substrate: C[C@H](CCC(=O)NCCS(=O)(=O)O)C1CC[C@H]2[C@@H]3C[C@H](O)[C@@H]4C[C@H](O)CC[C@]4(C)[C@H]3CC[C@]12C; experiment: as §2
[6] = substrate: C[C@H](CCC(=O)NCCS(=O)(=O)O)[C@H]1CC[C@H]2[C@@H]3CC[C@@H]4C[C@H](O)CC[C@]4(C)[C@H]3C[C@H](O)[C@]12C; experiment: as §2

B1: Hepatic sodium/bile acid cotransporter (Rattus norvegicus) (protein)
chain: MEVHNVSAPFNFSLPPGFGHRATDKALSIILVLMLLLIMLSLGCTMEFSKIKAHLWKPKGVIVALVAQFGIMPLAAFLLGKIFHLSNIEALAILICGCSPGGNLSNLFTLAMKGDMNLSIVMTTCSSFSALGMMPLLLYVYSKGIYDGDLKDKVPYKGIMISLVIVLIPCTIGIVLKSKRPHYVPYILKGGMIITFLLSVAVTALSVINVGNSIMFVMTPHLLATSSLMPFSGFLMGYILSALFQLNPSCRRTISMETGFQNIQLCSTILNVTFPPEVIGPLFFFPLLYMIFQLAEGLLIIIIFRCYEKIKPPKDQTKITYKAAATEDATPAALEKGTHNGNIPPLQPGPSPNGLNSGQMAN
Km [1]: 3.7 µM
Km [2]: 6.8 µM
Km [3]: 7.4 µM

B2: Solute carrier organic anion transporter family member 1A1 (Rattus norvegicus) (protein)
chain: MEETEKKIATQEGRLFSKMKVFLLSLTCACLTKSLSGVYMNSMLTQIERQFDISTSVAGLINGSFEIGNLFFIVFVSYFGTKLHRPVVIGIGCVIMGLGCLLMSLPHFFMGRYEYETTISPTGNLSSNSFLCMENRTQTLKPTQDPAECVKEMKSLMWICVMVGNIIRGIGETPIVPLGISYIEDFAKSENSPLYIGILEMGKVAGPIFGLLLGSYCAQIYVDIGSVNTDDLTITPSDTRWVGAWWIGFLVCAGVNILTSIPFFFLPKALPKKGQQENVAVTKDGKVEKYGGQAREENLGITKDFLTFMKRLFCNPIYMLFILTSVLQVNGFINKFTFLPKYLEQQYGKSTAEAIFLIGVYSLPPICLGYLIGGFIMKKFKITVKKAAYLAFCLSVFEYLLFLCHFMLTCDNAAVAGLTTSYKGVQHQLHVESKVLADCNTRCSCSTNTWDPVCGDNGVAYMSACLAGCKKFVGTGTNMVFQDCSCIQSLGNSSAVLGLCKKGPECANRLQYFLILTIIISFIYSLTAIPGYMVFLRCVKSEEKSLGVGLHTFCIRVFAGIPAPVYFGALIDRTCLHWGTLKCGQRGACRMYDINSFRHIYLGLPIALRGSSYLPAFFILILMRKFQFPGDIDSSATDHTEMMLGEKESEHTDVHGSPQVENDGELKTKL
Km [4]: 17.5 µM
Km [5]: 3.3 µM
Km [6]: 3.5 µM
